Values quoted from earlier work, collected in PMC4489983.

Experiments:
[1] = target: spinophilin (Homo sapiens) (UniProt Q96SB3)
PNUTS (Homo sapiens) = PNUTS (Homo sapiens) (UniProt Q96QC0)
NIPP1 (Homo sapiens) = NIPP1 (Homo sapiens) (UniProt Q12972)
NIPP1 (Homo sapiens), sequence (Q12972 whole entry): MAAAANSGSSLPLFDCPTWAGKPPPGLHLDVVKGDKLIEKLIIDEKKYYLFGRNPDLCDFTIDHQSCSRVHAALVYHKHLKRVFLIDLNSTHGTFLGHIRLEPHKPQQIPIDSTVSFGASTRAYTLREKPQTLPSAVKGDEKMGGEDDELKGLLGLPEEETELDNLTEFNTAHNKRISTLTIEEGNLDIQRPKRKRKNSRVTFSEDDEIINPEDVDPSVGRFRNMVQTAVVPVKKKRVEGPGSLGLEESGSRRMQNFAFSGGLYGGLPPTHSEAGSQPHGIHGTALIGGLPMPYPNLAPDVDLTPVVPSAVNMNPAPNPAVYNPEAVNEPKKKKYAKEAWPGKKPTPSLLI

PP1α, sequence (P62136 2-330): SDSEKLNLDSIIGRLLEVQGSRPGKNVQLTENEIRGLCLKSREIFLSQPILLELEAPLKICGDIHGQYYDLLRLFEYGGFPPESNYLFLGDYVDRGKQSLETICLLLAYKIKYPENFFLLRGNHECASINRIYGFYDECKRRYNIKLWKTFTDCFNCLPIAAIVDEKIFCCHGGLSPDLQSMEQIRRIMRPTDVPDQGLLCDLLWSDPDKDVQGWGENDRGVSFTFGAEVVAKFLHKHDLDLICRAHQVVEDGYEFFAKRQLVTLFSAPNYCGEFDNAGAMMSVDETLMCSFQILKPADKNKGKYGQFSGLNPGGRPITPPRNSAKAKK
PNUTS (Homo sapiens), sequence (Q96QC0 whole entry): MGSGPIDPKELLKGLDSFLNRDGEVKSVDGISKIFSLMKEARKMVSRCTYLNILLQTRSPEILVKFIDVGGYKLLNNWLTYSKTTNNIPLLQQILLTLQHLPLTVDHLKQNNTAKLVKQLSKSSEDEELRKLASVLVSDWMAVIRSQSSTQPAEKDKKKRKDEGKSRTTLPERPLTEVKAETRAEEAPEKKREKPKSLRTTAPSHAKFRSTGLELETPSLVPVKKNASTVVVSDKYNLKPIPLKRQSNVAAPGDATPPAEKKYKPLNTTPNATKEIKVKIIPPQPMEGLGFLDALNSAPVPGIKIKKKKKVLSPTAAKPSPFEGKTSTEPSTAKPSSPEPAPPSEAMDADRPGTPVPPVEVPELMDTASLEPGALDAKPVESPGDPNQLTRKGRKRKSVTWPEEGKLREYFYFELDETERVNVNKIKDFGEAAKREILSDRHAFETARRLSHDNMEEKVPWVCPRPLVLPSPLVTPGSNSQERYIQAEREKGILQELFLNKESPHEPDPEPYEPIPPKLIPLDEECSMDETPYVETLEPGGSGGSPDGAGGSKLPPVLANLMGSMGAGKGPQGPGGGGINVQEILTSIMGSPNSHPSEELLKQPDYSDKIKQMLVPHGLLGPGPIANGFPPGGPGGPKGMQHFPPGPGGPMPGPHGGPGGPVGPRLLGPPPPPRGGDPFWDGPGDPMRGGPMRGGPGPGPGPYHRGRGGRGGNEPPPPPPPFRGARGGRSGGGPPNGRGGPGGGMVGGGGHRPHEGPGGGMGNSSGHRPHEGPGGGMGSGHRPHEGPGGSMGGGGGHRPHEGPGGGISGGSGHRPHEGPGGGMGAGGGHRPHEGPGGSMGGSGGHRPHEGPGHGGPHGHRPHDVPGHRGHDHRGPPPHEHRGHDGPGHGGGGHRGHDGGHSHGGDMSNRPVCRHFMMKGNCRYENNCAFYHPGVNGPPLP
spinophilin (Homo sapiens), sequence (Q96SB3 whole entry): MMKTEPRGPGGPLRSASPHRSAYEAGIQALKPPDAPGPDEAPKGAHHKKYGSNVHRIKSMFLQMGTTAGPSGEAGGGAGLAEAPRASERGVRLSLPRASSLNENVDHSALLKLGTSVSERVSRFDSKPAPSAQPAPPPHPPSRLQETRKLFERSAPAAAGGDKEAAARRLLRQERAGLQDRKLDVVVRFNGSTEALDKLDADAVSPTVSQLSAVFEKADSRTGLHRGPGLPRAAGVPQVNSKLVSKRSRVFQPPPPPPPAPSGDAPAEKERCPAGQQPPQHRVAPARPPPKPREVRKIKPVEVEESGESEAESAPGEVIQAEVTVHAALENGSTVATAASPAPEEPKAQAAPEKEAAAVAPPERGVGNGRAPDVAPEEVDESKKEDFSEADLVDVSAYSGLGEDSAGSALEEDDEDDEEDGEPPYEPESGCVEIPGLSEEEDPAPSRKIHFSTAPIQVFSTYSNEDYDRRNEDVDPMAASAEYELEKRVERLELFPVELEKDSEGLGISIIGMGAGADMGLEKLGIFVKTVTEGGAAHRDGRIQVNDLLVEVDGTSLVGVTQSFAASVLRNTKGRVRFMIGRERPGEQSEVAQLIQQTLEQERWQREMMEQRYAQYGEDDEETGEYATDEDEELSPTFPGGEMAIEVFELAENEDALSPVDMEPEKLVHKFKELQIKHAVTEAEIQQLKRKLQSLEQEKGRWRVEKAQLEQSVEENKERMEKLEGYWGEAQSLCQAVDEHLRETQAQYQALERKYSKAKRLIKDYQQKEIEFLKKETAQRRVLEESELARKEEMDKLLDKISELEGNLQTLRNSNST

Kd [1]: 9.3 nM
Kd (PNUTS (Homo sapiens)): 8.7 nM
Kd (NIPP1 (Homo sapiens)): 73 nM
Substance: PP1α (from UniProt P62136)
